Target: HA1-trimer (influenza A virus H1N1 A/California/07/2009)
Experiment: AUC

## HA1-trimer
  stoichiometry N: 3

From article PMC9530591
